Consider two substances from patent US20210230287A1.

Assay [1] addresses human 4-1BB, full-length, on cells (human) (UniProt Q07011). Briefly: flow cytometry on human 4-1BB-expressing CHO-K1 cells, PE goat anti-human IgG Fc, MFI.
In assay [2] the target is cynomolgus 4-1BB extracellular domain, His tag (cynomolgus) (UniProt A9YYE7). Briefly: SPR, Biacore T200; antibody captured on Protein G chip, cynomolgus 4-1BB ECD.His as analyte.
Chain of cynomolgus 4-1BB extracellular domain, His tag (cynomolgus) (A9YYE7 entry or part of it): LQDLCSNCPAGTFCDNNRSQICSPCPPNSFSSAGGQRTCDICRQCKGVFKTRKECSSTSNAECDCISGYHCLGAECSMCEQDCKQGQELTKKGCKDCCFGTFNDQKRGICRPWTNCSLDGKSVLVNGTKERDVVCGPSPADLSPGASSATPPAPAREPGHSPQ

Chain of BMK4.hIgG2L(Pfizer) (antibody) (VH): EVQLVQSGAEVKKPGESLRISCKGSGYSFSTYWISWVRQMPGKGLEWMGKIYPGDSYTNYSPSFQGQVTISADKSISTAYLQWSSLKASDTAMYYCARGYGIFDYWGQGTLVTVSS
Chain of BMK4.hIgG2L(Pfizer) (antibody) (VL): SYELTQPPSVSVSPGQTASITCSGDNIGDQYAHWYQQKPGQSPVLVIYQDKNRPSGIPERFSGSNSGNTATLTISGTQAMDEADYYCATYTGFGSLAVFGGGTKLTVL
Chain of human 4-1BB, full-length, on cells (human) (Q07011 24-255 limits assumed): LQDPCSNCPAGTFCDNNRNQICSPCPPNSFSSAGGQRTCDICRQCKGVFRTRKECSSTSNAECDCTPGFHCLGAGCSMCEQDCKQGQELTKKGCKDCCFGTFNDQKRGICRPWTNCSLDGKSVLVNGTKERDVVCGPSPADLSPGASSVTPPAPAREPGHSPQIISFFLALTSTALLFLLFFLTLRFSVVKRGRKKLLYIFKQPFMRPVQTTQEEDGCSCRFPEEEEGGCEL

As for WBP342-BMK3.hIgG4 (antibody), the EC50 (read off the curve) in assay [1] is 0.2 nM.
BMK4.hIgG2L(Pfizer) (antibody): in assay [2], the Kd was found to be 16 nM.
